This note sets out measurements from the nanobody polyreactivity screen of Harvey et al. (2022).

The data set can be described thus: yeast display, Sf9 membrane polyspecificity reagent, FACS + sequencing; frameworks hold sequencing errors. In short, it runs like this: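 Nanobodies from a synthetic yeast display library (Saccharomyces cerevisiae BJ5465), induced 36–48 hours with galactose, were stained 1 hour at 4 °C with 10% biotinylated, detergent-solubilized Sf9 membrane reagent, enriched on streptavidin microbeads, then FACS-sorted. Anti-HA (expression) and streptavidin (reagent binding) fluorescence set low and high (top ~1%) gates. Polyreactivity labels come from the gate of origin. Genes were colony-PCR amplified, MiSeq 2 × 250 sequenced and filtered by CDR length.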
Turning to “QVQLVESGGGLVQAGGSLRLSCAASGRTFYRNTMGWYRQAPGKERELVAAITGSGGITYYADSVKGRFTISRDNAKNTVYLKMNSLKPEDTAVYYCAAARYLGQGTQVTVSS”, the “polyreactivity (PSR sort gate)” value was “high polyreactivity”.

For “QVQLVESGGGLVQAGGSLRLSCAASGRTFYRYAMGLYRQAPRKERELVASITRGTSTNYADSVKGRFTISRDNAKNTVYLQMNSLKPEDTAVYYCNRRIFGGQRMYYWGQGTQVTVSS”, the “polyreactivity (PSR sort gate)” value was “high polyreactivity”.

As to “QVQLVESGGGLVQAGGSLRLSCAASGRTFYRYAMGWYRQAPGKERELVAAITGGGRTYYADSVKGRFTISRDNAKNTVYLQMNSLKPEDTAVYDCAAVVLRRPAYDYWGQGTQVTVSS”, the “polyreactivity (PSR sort gate)” value is on record as “low polyreactivity”.

Take “QVQLVESGGGLVQAGGSLRLSCAASGRTFYRYAMGWYRQAPGKERELVAAITRRGDSTSYADSVKGRFTISRDNAKNTVYLQMNSLKPEDTAVYYCATLVQGSVYGLYGGGYWGQGTQVTVSS”: the “polyreactivity (PSR sort gate)” value is “low polyreactivity”.

As to “QVQLVESGGGLVQAGGSLRLSCAASGRTFYRYAMGWYRQAPGKERELVASITWSGGSTYYADSVKGRFTISRDNAKNTVYLQMNSLKPEDTAVYYCAAISAVTLRGYYYWGQGTQVTVSS”, the “polyreactivity (PSR sort gate)” value is given as “high polyreactivity”.

For “QVQLVESGGGLVQAGGSLRLSCAASGRTFYRYVMAWYRQAPRKERELVADITRSGGSTYYADSVKGRFTISRDNAKNTVYLQMNSLKPEDTAVYYCNKRYRVWFDYWGQGTQVTVSS”, the “polyreactivity (PSR sort gate)” value is on record as “high polyreactivity”.

In the case of “QVQLVESGGGLVQAGGSLRLSCAASGRTFYRYVMGWYRQAPGKERALVAAITWSGGSTYYADSVKGRFTISRDNAKNTVYLQMNSLKPEDTAVYYCAKGLYDASRRYYYWGQGTQVTVSS”, the “polyreactivity (PSR sort gate)” value is “high polyreactivity”.

“QVQLVESGGGLVQAGGSLRLSCAASGRTFYSNAMGWYRQAPGKERELVAAITSTDDSTYYADSVKGRFTISRDNAKNTVNLQMYSLKPEYTAVYYCNTDGLIAIRGLWWFEFDYWGQGTQVTVSS”: the “polyreactivity (PSR sort gate)” value is “low polyreactivity”.

With “QVQLVESGGGLVQAGGSLRLSCAASGRTFYSNAMGWYRQAPGKERELVATITRRGGSTYYADSVKGRFTISRDNAKNTVYLQMNSLKPEDTAVYYCNAVSSKGNPYYYWGQGTQVTVSS”, the “polyreactivity (PSR sort gate)” value is on record as “high polyreactivity”.

In the case of “QVQLVESGGGLVQAGGSLRLSCAASGRTFYSYAMGWYRQAPGKEREFVAAINWSGTSTYADSVKGRFTISRDNAKNTVYLQMNSLKPEDTAVSYCAKTYRTLVRYWGQPFGYWGQGTQVTVSS”, the “polyreactivity (PSR sort gate)” value is “high polyreactivity”.

Turning to “QVQLVESGGGLVQAGGSLRLSCAASGRTFYSYAMGWYRQAPGKERELVAAINSGGDTYYADSVKGRFTISRDNAKNSVYLQMNSLKAEDSAVYYCAADYYWEMDSWGQGTQVTVSS”, the “polyreactivity (PSR sort gate)” value was “low polyreactivity”.

Consider “QVQLVESGGGLVQAGGSLRLSCAASGRTFYSYAMGWYRQAPGKERELVAAISYTGASTFYADSVKGRFTISRDNAKNTVYLQMNSLKPEDTAVYYCAARKVRFGVDYWGPGTQVTVSS”, for which the “polyreactivity (PSR sort gate)” value is given as “high polyreactivity”.

For “QVQLVESGGGLVQAGGSLRLSCAASGRTFYSYAMGWYRQAPGKERELVASISSSGASTYYADSVKGRFTISRDNAKNTVYLQMNSLKPEDTAVYYCNSVWRTSFITIYGFDYWGQGTQVTVSS”, the “polyreactivity (PSR sort gate)” value is “high polyreactivity”.

On to “QVQLVESGGGLVQAGGSLRLSCAASGRTFYSYAMGWYRQAPGKEREWVATITNGDTTNYADSVKGRFTISRDNAKNTVYLQMNSLKPEDTAVYYCAKDISPGYDEYDYWGQGTQVTVSS”, for which the “polyreactivity (PSR sort gate)” value is “low polyreactivity”.

Consider “QVQLVESGGGLVQAGGSLRLSCAASGRTFYSYAMGWYSQAPGKERELVATISSNADGTYYADSVKGRFTISRDNAKNTVYLQMNSLKPEDTAVYYCAATYRRSHRYNYWGQGTQVTVSS”, for which the “polyreactivity (PSR sort gate)” value is on record as “high polyreactivity”.

As to “QVQLVESGGGLVQAGGSLRLSCAASGRTFYSYTMGWYRQAPGKEREFVAAISSSGSSTYYADSVKGRFTISRDNAKYTVYLQMNSLKPEDTAVYYCAATRYRYPGYFRYDYWGQGTQVTVSS”, the “polyreactivity (PSR sort gate)” value is reported as “high polyreactivity”.

For the sequence “QVQLVESGGGLVQAGGSLRLSCAASGRTFYSYVMGWYRQAPGKEREFVADISQSGGRTFYSDSVKGRFTISRDNAKNTVYLQMNSLKPEDTAVYYCAAAKRGSYARGYYWGQGTQVTVSS”, the “polyreactivity (PSR sort gate)” value is “low polyreactivity”.

Turning to “QVQLVESGGGLVQAGGSLRLSCAASGRTFYSYVMGWYRQAPGKEREFVADISQSGGRTYYADSVKGRFTISRDNAKNTVYLQMNSLKPEDTAVYYCAAAKRGSYARGYYWGQGTQVTVSS”, the “polyreactivity (PSR sort gate)” value was “low polyreactivity”.

As for “QVQLVESGGGLVQAGGSLRLSCAASGRTFYSYVMGWYRQAPGKERELVAAIRSSGRTYYADSVKGRFTISRDNAKNTVYLQMNRLTPEDTAVYYCAAYAWVSGSLYDSWGQGTQVTVSS”, the “polyreactivity (PSR sort gate)” value is “high polyreactivity”.

As to “QVQLVESGGGLVQAGGSLRLSCAASGRTFYTNAMGWYRQAAGKERELVAVISRGGTTYYADSVKGRFTISRDNAKNTVYLQMNSLKPEDTAVYYCAKQRPSGDSSSQMGSWGQGTQVTVSS”, the “polyreactivity (PSR sort gate)” value was “low polyreactivity”.

As to “QVQLVESGGGLVQAGGSLRLSCAASGRTFYTNAMGWYRQAPGKERELVASISGSGGSTYYADSVKGRFTISRDNGKNTVYLQMNSLNPEDTAVYYCAADPAPTVEFGKYDYWGQGTQVTVSS”, the “polyreactivity (PSR sort gate)” value was “low polyreactivity”.

Take “QVQLVESGGGLVQAGGSLRLSCAASGRTFYTNTMGWYRQAPGKERELVAAISYSGSSTYYADSVKGRFTISRDNAKNTVYLQMNCLKPEDTAVYYCNAVRYYRYYYWGQGTQVTVSS”: the “polyreactivity (PSR sort gate)” value is on record as “low polyreactivity”.

With “QVQLVESGGGLVQAGGSLRLSCAASGRTFYTYAMGWYRQAPGKERELVAAISISGSRTYYADSVKGRFTISRDNAKNTVYLQMNSLKPEDTAVYYCAADRSYWAYVFQYVSYGEDYWGQGTQVTVSS”, the “polyreactivity (PSR sort gate)” value is on record as “high polyreactivity”.

For “QVQLVESGGGLVQAGGSLRLSCAASGRTFYTYAMGWYRQAPGKERELVAAISSGGSTYYADSVKGRFTISRDNAKNTVYLQMNSLKPEDTAVYYCAARYSKRVWYGYWGQGTQVTVSS”, the “polyreactivity (PSR sort gate)” value is recorded as “high polyreactivity”.

Turning to “QVQLVESGGGLVQAGGSLRLSCAASGRTFYTYAMGWYRQAPGKERELVASISRSGSGTFYADSVKGRFTISRDNAKNTVYLQMNSLKPEDTAVYYCNAVSAAKIPFQKYGYWGQGTQVTVSS”, the “polyreactivity (PSR sort gate)” value is given as “high polyreactivity”.

As for “QVQLVESGGGLVQAGGSLRLSCAASGRTFYVNALGWYRQAPGKERELVAGISFSDGSTYYADSVKGRFTISRDNAKNTVYLQMNSLKPEDTAVYYCATVGAFDIYYGYGYWGQGTQVTVSS”, the “polyreactivity (PSR sort gate)” value was “low polyreactivity”.

As to “QVQLVESGGGLVQAGGSLRLSCAASGRTFYVNAMGWYRQAPGKERELVAAISRSGRTNYADSVKGRFTISRDNAKNTVYLQMNSLKPEDTAVYYCAAALSNVRNVRSPYDYWGQGTQVTVSS”, the “polyreactivity (PSR sort gate)” value is given as “high polyreactivity”.

Consider “QVQLVESGGGLVQAGGSLRLSCAASGRTFYVNAMGWYRQAPGKERELVARISSSGITYYADSVKGRFTISRDNAKNTVYLQMNSLKPEDTAVYYCAAEYRSYSTLNRKFWYSPEYDYWGQGTQVTVSS”, for which the “polyreactivity (PSR sort gate)” value is “low polyreactivity”.

In the case of “QVQLVESGGGLVQAGGSLRLSCAASGRTFYVNAMGWYRQAPGKETELVAAISSGSSTDYADSVKGRFTISRDNAKNTVYLQMNSLKPEDTAVYYCAKRWRRRFVDVWSLYDYWGQGTQVTVSS”, the “polyreactivity (PSR sort gate)” value is given as “low polyreactivity”.

Take “QVQLVESGGGLVQAGGSLRLSCAASGRTFYVNTMGWYRQAPGKERELVAAITSRGGRTHYADSVKGRFTISRDNAKNNVYLQMNSLKPEDTAVYYCAAKITAYWRYISDYGYWGQGTQVTVSS”: the “polyreactivity (PSR sort gate)” value is reported as “high polyreactivity”.

As to “QVQLVESGGGLVQAGGSLRLSCAASGRTFYVNTMGWYRQATGKETELVARITRGGSTYYADSVKGRFTISRDNAKNTVYLQMNSLKPEDTAVYYCATDHFPVYSTHVIYEFDYWGQGTQVTVSS”, the “polyreactivity (PSR sort gate)” value is recorded as “low polyreactivity”.

Turning to “QVQLVESGGGLVQAGGSLRLSCAASGRTFYVYAMGWYRQAPGKERELVAAITRGGRTKYADSVKGRFTISRDNAKNTVYLQMNSLKPEDTAVYYCATVASPNRGGVSRYDYWGQGTQVTVSS”, the “polyreactivity (PSR sort gate)” value was “high polyreactivity”.

Regarding “QVQLVESGGGLVQAGGSLRLSCAASGRTFYWNAMGWSRQAPGKERELVASINCGGSTYYADSVKGRFTISRDNAKNTVYLQMNSLKPEGTAVYYCNAESYEFHRAWGDYDYWGQGTQVTVSS”, the “polyreactivity (PSR sort gate)” value was “low polyreactivity”.

As to “QVQLVESGGGLVQAGGSLRLSCAASGRTFYWNAMGWYRQAPGKERELVAAIRWRGGNTYYADSVKGRFTISRDNAKNTVYLQMNSLKPEDTAVYYCAAAGGKSEMGYWGQGTQVTVSS”, the “polyreactivity (PSR sort gate)” value was “high polyreactivity”.

On to “QVQLVESGGGLVQAGGSLRLSCAASGRTFYWNAMGWYRQAPGKERELVAAISWRGGSTYYADSVKGRFTISRDNAKNTVYLQMNSLKPEDTAVYYCAAYHSREYDYWGQGTQVTVSS”, for which the “polyreactivity (PSR sort gate)” value is on record as “high polyreactivity”.

In the case of “QVQLVESGGGLVQAGGSLRLSCAASGRTFYWNTMGWYRQAPGKERELVAAINYSGGSTYYADSVKGRFTISRDNAKNTVYLQMNSLKPEDTAVYYCAAYFHGYKSQHRARSEYNYWGQGTQVTVSS”, the “polyreactivity (PSR sort gate)” value is “high polyreactivity”.

Take “QVQLVESGGGLVQAGGSLRLSCAASGRTFYWYAMGWYRQAPGKERELVAAIRKTDTSTYYADSVKGRFTISRDNAKNTVYLQMNSLKPEDTAVYYCAARSTYSSGKYGYKYDYWGQGTQVTVSS”: the “polyreactivity (PSR sort gate)” value is “high polyreactivity”.

Take “QVQLVESGGGLVQAGGSLRLSCAASGRTFYYAMGWYRQAPGTERELVATITSGGSTNYADSVKGRFTISRDNAKNTVYLQMNSLKPEDTAVYYCNRDIPPGNYYKALYYYWGQGTQVTVSS”: the “polyreactivity (PSR sort gate)” value is recorded as “low polyreactivity”.

In the case of “QVQLVESGGGLVQAGGSLRLSCAASGRTFYYNAMGGYRPAPGKERELVATITWTGDSTYADSVKGRFTISRDNAKNTVYLQMISLKPEDTAVYYCAAGKPVILTGDYDYWGQGTQVTVSS”, the “polyreactivity (PSR sort gate)” value is “low polyreactivity”.

For the sequence “QVQLVESGGGLVQAGGSLRLSCAASGRTFYYNAMGWYRQAPGKEREFVAAIRYSGGITYYADSVKGRFTISRDNAKNTVYLQMNSQKPEDTAVYYCAADYVSRRYYYWGQGTQVTVSS”, the “polyreactivity (PSR sort gate)” value is given as “high polyreactivity”.

On to “QVQLVESGGGLVQAGGSLRLSCAASGRTFYYNAMGWYRQAPGKEREFVAGISYGGTTTYYADSVKGRFTISRDNAKNTVYLQMNSLKPEDTAVYYCAAGYTWRQSWYPFDYWGQGTQVTVSS”, for which the “polyreactivity (PSR sort gate)” value is reported as “high polyreactivity”.
